*1 amine or outer side, *2 acyl side, *3 side chain or, on linkers, in order; H or OH if unused. Side-chain parts run from the residue outwards. The star is where a group is joined. C18 diacid = O=C(O)CCCCCCCCCCCCCCCCC(=O)*; γGlu = O=C(O)[C@H](CCC(=O)[*:2])N[*:1]; Isovaleryl = CC(C)CC(=O)*; AEEA = NCCOCCOCC(=O)O
T1: human neuropeptide Y2 receptor (human, UniProt P49146 1-381)
T1 construct: whole, on cells; also called hNPY2 receptor; hNPY2-R
T1 sequence (looked up): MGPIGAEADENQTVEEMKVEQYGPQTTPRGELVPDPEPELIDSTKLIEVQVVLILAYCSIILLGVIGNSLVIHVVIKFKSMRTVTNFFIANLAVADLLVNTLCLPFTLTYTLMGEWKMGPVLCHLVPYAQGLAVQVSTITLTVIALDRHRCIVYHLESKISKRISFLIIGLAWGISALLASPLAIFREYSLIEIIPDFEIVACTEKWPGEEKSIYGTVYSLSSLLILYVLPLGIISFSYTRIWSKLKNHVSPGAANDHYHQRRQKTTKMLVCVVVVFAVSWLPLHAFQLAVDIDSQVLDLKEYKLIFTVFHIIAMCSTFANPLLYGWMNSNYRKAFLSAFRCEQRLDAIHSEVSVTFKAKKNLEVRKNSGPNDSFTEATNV

B1: Compound 28 (peptide)
peptide: Isovaleryl-APEK([AEEA-AEEA-γGlu-C18 diacid])PEEDTSPEELQRYYVELRHYYNWLTRQRY-NH2
SMILES: CC(C)CC(=O)N[C@@H](C)C(=O)N1CCC[C@H]1C(=O)N[C@@H](CCC(=O)O)C(=O)N[C@@H](CCCCNC(=O)COCCOCCNC(=O)COCCOCCNC(=O)CC[C@H](NC(=O)CCCCCCCCCCCCCCCCC(=O)O)C(=O)O)C(=O)N1CCC[C@H]1C(=O)N[C@@H](CCC(=O)O)C(=O)N[C@@H](CCC(=O)O)C(=O)N[C@@H](CC(=O)O)C(=O)N[C@H](C(=O)N[C@@H](CO)C(=O)N1CCC[C@H]1C(=O)N[C@@H](CCC(=O)O)C(=O)N[C@@H](CCC(=O)O)C(=O)N[C@@H](CC(C)C)C(=O)N[C@@H](CCC(N)=O)C(=O)N[C@@H](CCCNC(=N)N)C(=O)N[C@@H](Cc1ccc(O)cc1)C(=O)N[C@@H](Cc1ccc(O)cc1)C(=O)N[C@H](C(=O)N[C@@H](CCC(=O)O)C(=O)N[C@@H](CC(C)C)C(=O)N[C@@H](CCCNC(=N)N)C(=O)N[C@@H](Cc1c[nH]cn1)C(=O)N[C@@H](Cc1ccc(O)cc1)C(=O)N[C@@H](Cc1ccc(O)cc1)C(=O)N[C@@H](CC(N)=O)C(=O)N[C@@H](Cc1c[nH]c2ccccc12)C(=O)N[C@@H](CC(C)C)C(=O)N[C@H](C(=O)N[C@@H](CCCNC(=N)N)C(=O)N[C@@H](CCC(N)=O)C(=O)N[C@@H](CCCNC(=N)N)C(=O)N[C@@H](Cc1ccc(O)cc1)C(N)=O)[C@@H](C)O)C(C)C)[C@@H](C)O
B2: Compound 32 (peptide)
peptide: Isovaleryl-APEK([AEEA-AEEA-γGlu-C18 diacid])PEEDTSPEELQRYEVSLRHYYNWLTRQRY-NH2
SMILES: CC(C)CC(=O)N[C@@H](C)C(=O)N1CCC[C@H]1C(=O)N[C@@H](CCC(=O)O)C(=O)N[C@@H](CCCCNC(=O)COCCOCCNC(=O)COCCOCCNC(=O)CC[C@H](NC(=O)CCCCCCCCCCCCCCCCC(=O)O)C(=O)O)C(=O)N1CCC[C@H]1C(=O)N[C@@H](CCC(=O)O)C(=O)N[C@@H](CCC(=O)O)C(=O)N[C@@H](CC(=O)O)C(=O)N[C@H](C(=O)N[C@@H](CO)C(=O)N1CCC[C@H]1C(=O)N[C@@H](CCC(=O)O)C(=O)N[C@@H](CCC(=O)O)C(=O)N[C@@H](CC(C)C)C(=O)N[C@@H](CCC(N)=O)C(=O)N[C@@H](CCCNC(=N)N)C(=O)N[C@@H](Cc1ccc(O)cc1)C(=O)N[C@@H](CCC(=O)O)C(=O)N[C@H](C(=O)N[C@@H](CO)C(=O)N[C@@H](CC(C)C)C(=O)N[C@@H](CCCNC(=N)N)C(=O)N[C@@H](Cc1c[nH]cn1)C(=O)N[C@@H](Cc1ccc(O)cc1)C(=O)N[C@@H](Cc1ccc(O)cc1)C(=O)N[C@@H](CC(N)=O)C(=O)N[C@@H](Cc1c[nH]c2ccccc12)C(=O)N[C@@H](CC(C)C)C(=O)N[C@H](C(=O)N[C@@H](CCCNC(=N)N)C(=O)N[C@@H](CCC(N)=O)C(=O)N[C@@H](CCCNC(=N)N)C(=O)N[C@@H](Cc1ccc(O)cc1)C(N)=O)[C@@H](C)O)C(C)C)[C@@H](C)O

Molecular target: T1, human neuropeptide Y2 receptor
Experiment: radioligand competition (125I-PYY(1-36)), hNPY2R membranes
Method in brief: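 Commercial human Y2 receptor membranes (0.5 μg protein/well) were incubated with peptide for 2 h at room temperature in 50 mM HEPES, 5 mM MgCl₂, 1 mM CaCl₂, pH 7.4, with 0.2% ovalbumin. Bound radioligand was separated on PEI-soaked GF/C filters and counted by scintillation, and IC₅₀ came from nonlinear sigmoidal regression.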

Binder	Ki [nM]
B1	6.03
B2	4.84

Source: US20210139548A1 (published 2021)
